Read-outs that look alike come from different tables or passages of the source.

The target in assay [1] is T1, CRH (C-Terminal Region, NT Biotin) (N-terminal Biotin-K; C-terminal NH2).
T1 construct: central region plus C-terminal region of CRH; also called C-Terminal CRH; C-Ter-CRH
T1 peptide: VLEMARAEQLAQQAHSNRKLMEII
Nature of the assay: ELISA, CRH C-terminal region peptide (NT biotin). A digest of the protocol:
(§1)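 Steps: coat with streptavidin 2 μg/ml overnight at 4° C; wash; add HRP-conjugated goat anti-human IgG (H+L), 37° C for 1 hour; develop with TMB at room temperature 15 minutes; stop and measure OD at 450 nm.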
For orientation: In an ELISA, binding on a coated surface is turned into a signal by an enzyme label.

In assay [2] the target is T2, human UCN2 peptide, biotinylated (human, UniProt Q96RP3 72-109, limits assumed, biotin at N- or C-terminus).
T2 construct: also called hUCN2 (NT Biotin); hUCN2 (CT Biotin)
T2 peptide (looked up): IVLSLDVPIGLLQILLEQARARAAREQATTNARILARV
Nature of the assay: ELISA, hUCN2 (NT biotin) and (CT biotin).

The target of assay [3] is T3, human UCN1 peptide, biotinylated (human, UniProt P55089 83-122, biotin at N- or C-terminus).
T3 construct: also called hUCN1 (NT Biotin); hUCN1 (CT Biotin)
T3 peptide (looked up): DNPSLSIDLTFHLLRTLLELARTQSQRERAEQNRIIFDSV
Nature of the assay: ELISA, hUCN1 (NT biotin) and (CT biotin). On the procedure: Streptavidin (Thermo, Cat: 21125) was diluted in PBS with a concentration of 2 μg/mL. 100 μL of diluted streptavidin was added per well to ELISA microplates, and the plates were incubated overnight at 4° C. Plates were blocked with ELISA blocking solution (containing 2% w/v BSA, 0.05% (v/v) Tween-20, pH 7.4 PBS buffer) at 37° C. for 1 hour, and then incubated with either 1 μg/mL hUCN1 (NT Biotin), hUCN1 (CT Biotin), hUCN2 (NT Biotin), hUCN2 (CT Biotin), hUCN3 (NT Biotin), or hUCN3 (CT Biotin) for 1 hour at 37° C. […] Plates were subsequently washed and incubated with HRP-conjugated goat anti-human IgG (H+L) antibody (Jackson, Cat: 109-035-088) at 37° C. for 1 hour. 100 μl of TMB Substrate (Biopanda, Cat: TMB-S-003) was added, and the plates were incubated at room temperature for 15 minutes. 100 μL of ELISA stopping solution (Solarbio, Cat #: C1058) was then added to terminate the reaction, and the OD450 nm was determined by an ELISA plate reader (Molecular Devices, Spectra max 384 plus).

Assay [4] addresses T4, N-Terminal CRH peptide (N-terminal region plus central region, CT biotin) (human and mouse, C-terminal K-Biotin).
T4 construct: also called N-Ter-CRH
T4 peptide: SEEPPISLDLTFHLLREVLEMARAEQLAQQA
Briefly: ELISA, N-Ter-CRH (CT-biotin) on streptavidin. A digest of the protocol:
as §1

The target in assay [5] is T5, CRH (Central Region, CT Biotin) (C-terminal K-Biotin).
T5 construct: also called Central CRH
T5 peptide: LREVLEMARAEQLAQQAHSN
Nature of the assay: ELISA, CRH central region peptide (CT biotin). The essentials: as §1

Assay [6] deals with T6, biotinylated CRH (human and mouse, UniProt P01143 145-185 (rat entry), not fully specified; biotin; which end is not stated for the result (NT-biotin and CT-biotin forms were used)).
T6 construct: also called biotin-CRH; CRH (NT biotin)
T6 peptide: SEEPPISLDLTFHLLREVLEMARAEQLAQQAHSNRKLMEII
Nature of the assay: ELISA, CRH (CT biotin). The essentials:
as §1

The target of assay [7] is T7, human UCN3 peptide, biotinylated (human, UniProt Q969E3 120-157, biotin at N- or C-terminus).
T7 construct: also called hUCN3 (NT Biotin); hUCN3 (CT Biotin)
T7 peptide (looked up): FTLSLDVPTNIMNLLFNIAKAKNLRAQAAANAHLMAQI
Nature of the assay: ELISA, hUCN3 (NT biotin) and (CT biotin).

In assay [8] the target is T8, corticotropin-releasing hormone (CRH) peptide (human and mouse, UniProt P01143 145-185 (rat entry), not fully specified).
T8 peptide: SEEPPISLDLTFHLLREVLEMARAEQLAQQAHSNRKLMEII
Nature of the assay: cell-based or functional assay.

Assay [9] addresses T6, biotinylated CRH. Nature of the assay: ELISA, CRH (NT biotin). The essentials: as §1
Assay [10] addresses T9, CRH (Central Region, NT Biotin) (N-terminal Biotin-K; C-terminal NH2).
T9 construct: also called Central CRH
T9 peptide: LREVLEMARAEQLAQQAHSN
Briefly: ELISA, CRH central region peptide (NT biotin). The essentials: as §1

For assay [11], the target named is T6, biotinylated CRH. Nature of the assay: ELISA, CRH (NT biotin).
Assay [12] addresses T8, corticotropin-releasing hormone (CRH) …. Nature of the assay: cell-based or functional assay.
Assay [13] shares this target. Briefly: cell-based or functional assay.
Assay [14] has as its target T6, biotinylated CRH. Briefly: ELISA, CRH (NT biotin).
Assay [15] deals with T6, biotinylated CRH. Briefly: ELISA, CRH (CT biotin).
The target of assay [16] is T8, corticotropin-releasing hormone (CRH) …. Nature of the assay: cell-based or functional assay.
Assay [17] shares this target. Nature of the assay: cell-based or functional assay.
The target of assay [18] is T6, biotinylated CRH. Briefly: ELISA, CRH (NT biotin).
Assay [19] concerns the target T6, biotinylated CRH. Nature of the assay: ELISA, CRH (CT biotin). On the procedure:
Streptavidin (Thermo, Cat: 21125) was diluted in PBS to a concentration of 2 μg/ml. 100 μl of diluted streptavidin was added per well to ELISA microplates, and the plates were incubated overnight at 4° C. […] Subsequently, plates were washed and incubated with HRP-conjugated goat anti-human IgG (H+L) antibody (Jackson, Cat: 109-035-088) at 37° C. for 1 hour. 100 μL of 3,3′,5,5′-tetramethylbenzidine (TMB) substrate (Biopanda, Cat: TMB-S-003) was added, and the plates were incubated at room temperature for 15 minutes. 100 μL of ELISA stopping solution (Solarbio, Cat #: C1058) was added to terminate the reaction, and the optical density at 450 nm (OD450 nm) was determined by an ELISA plate reader (Molecular Devices, Spectra max 384 plus).
These potential PTMs were mutated individually either in HCDR2 alone, in LCDR1 alone, or in various combinations of mutations, as detailed in Table 3. […] Most ΔPTM variants retained functional activities.

In assay [20] the target is T8, corticotropin-releasing hormone (CRH) …. Nature of the assay: cell-based or functional assay.
In assay [21] the target is T6, biotinylated CRH. Briefly: ELISA, CRH (NT biotin).
The target in assay [22] is T6, biotinylated CRH. Nature of the assay: ELISA, CRH (CT biotin).

B1: PR302334-26 (antibody, human IgG1, kappa, V domains shown)
VH: EVQLVESGGGLVQPGGSLRLSCAASGFTFSTYAMSWVRQAPGKGLEWVASIRSGGTTYYPDSVKGRFTISRDNSKNSLYLQMNSLRAEDTAVYYCTRGIDWGQGTTVTVSS
VL: DIVMTQSPDSLAVSLGERATINCKASQSVNNDVAWYQQKPGQPPRLLIYYASNRYTGVPDRFSGSGSGTDFTLTISSLQAEDLAVYFCQQDYSSWTFGGGTKVEIKR
Turning to B1, the binding result in assay [1], in assay [2], in [3], in assay [5], in assay [7] and in assay [10] was “no binding (tested: 100 nM)” each time. Also, the EC50 in [4] was determined as 0.029 nM. Moreover, the “EC50 (read off the curve)” value in the assay with biotinylated CRH [6] and with biotinylated CRH [9] was ~0.03 nM each time. Besides, the “hCRHR1-Luc 0.5 nM CRH IC50” value in assay [8] was 1.1 nM.

B2: PR004290 (antibody, human IgG1, kappa, V domains shown)
VH: EVQLVESGGVLVQPGGSLRLSCAASGFTFSSYWMTWVRQAPGKGLEWVANIKQDGSEKYYVDSVKGRFTISRDNAKNSLFLQMNSLRAEDTAVYYCARTLIFDYWGQGTLVTVSS
VL: DIVMTQSPLSLPVTPGEPASISCRSSQSLLHSTGYNSLEWYLQKPGQSPQLLIYLGSNRASGVPDRFSGSGSGTDFTLKISRVEAEDVGIYYCMQTLQTPITFGQGTRLEIKR
notes: human IgG1 wildtype Fc; also called Hybridoma Clone 28b3
B2: the “EC50 (read off the curve)” value is ~0.05 nM with biotinylated CRH [11]; ~0.01 nM in the assay with biotinylated CRH [14]; ~0.01 nM in the assay with biotinylated CRH [15]; ~0.01 nM with biotinylated CRH [18]; ~0.05 nM in the assay with biotinylated CRH [19]; ~0.03 nM with biotinylated CRH [21]. In the assay with biotinylated CRH [22], the “EC50 (read off the curve)” value is ~0.03 nM. Moreover, the figures for the “IC50 (read off the curve), CRH-induced mCRHR1 luciferase reporter” value in [12] and in assay [16] were ~8 nM and ~5 nM, respectively. The “IC50 (read off the curve), CRH-induced hCRHR1 luciferase reporter” value in [13] and in assay [17] was ~3 nM throughout. Also, the “IC50 in the hCRHR1 reporter assay” value in [20] is ~5 nM.

As usually defined, the EC50 is the concentration needed to bring the measured effect to its halfway point. By EC50 (read off the curve) is commonly meant the concentration giving half of the maximal effect.

For the origin of these results see patent US20250197490A1 (HBM ALPHA THERAPEUTICS, published 2025).
